Laboratory results as given in article PMC5639367, “Structure‐Guided Design of Peptides as Tools to Probe the Protein–Protein Interaction between Cullin‐2 and Elongin BC Substrate Adaptor in Cullin RING E3 Ubiquitin Ligases” (Chemmedchem, 2017).

These substances were tested against VBC ternary complex (pVHL, Elongin B, Elongin C) (UniProt P40337) (assay: BLI; biotinylated VBC (25 ug/mL) immobilised on Super Streptavidin biosensors, peptides titrated; Octet RED384; 25 °C; 20 mM HEPES pH 7.6, 100 mM NaCl, 1 mM DTT, 0.02 % Tween-20; reference tips subtracted; 1:1 model).

Sequence of peptide C (8-mer Cul2 peptide, Leu3 replaced by phenylalanine) (Q13617 whole entry, looked up, tested part not stated): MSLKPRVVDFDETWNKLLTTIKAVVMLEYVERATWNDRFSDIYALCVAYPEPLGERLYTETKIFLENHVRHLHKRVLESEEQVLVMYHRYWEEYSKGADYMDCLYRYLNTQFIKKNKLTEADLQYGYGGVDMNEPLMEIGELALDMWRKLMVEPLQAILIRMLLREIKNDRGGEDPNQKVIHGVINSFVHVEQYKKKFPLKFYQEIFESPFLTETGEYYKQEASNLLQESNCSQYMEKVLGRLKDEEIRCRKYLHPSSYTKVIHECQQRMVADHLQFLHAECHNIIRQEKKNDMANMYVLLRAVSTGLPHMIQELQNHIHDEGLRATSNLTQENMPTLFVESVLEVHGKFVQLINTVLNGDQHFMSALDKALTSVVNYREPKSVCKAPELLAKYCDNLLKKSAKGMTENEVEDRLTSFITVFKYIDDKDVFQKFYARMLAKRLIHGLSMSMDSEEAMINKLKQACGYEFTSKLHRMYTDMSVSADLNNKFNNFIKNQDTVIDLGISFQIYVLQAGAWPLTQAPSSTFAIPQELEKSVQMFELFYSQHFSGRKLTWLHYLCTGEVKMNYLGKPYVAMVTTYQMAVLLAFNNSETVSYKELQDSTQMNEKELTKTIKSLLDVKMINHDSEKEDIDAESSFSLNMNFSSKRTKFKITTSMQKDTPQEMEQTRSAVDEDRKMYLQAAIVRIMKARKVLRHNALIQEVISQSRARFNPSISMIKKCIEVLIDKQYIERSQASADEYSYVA
Sequence of peptide D (8-mer Cul2 peptide, Leu3 replaced by tyrosine) (Q13617 whole entry, looked up, tested part not stated): as above

Q: With “peptide D (8-mer Cul2 peptide, Leu3 replaced by tyrosine) (from UniProt Q13617 1-8)” as the substance, how does the Kd read?
A: 7400 µM

Q: How did the Kd turn out when “peptide C (8-mer Cul2 peptide, Leu3 replaced by phenylalanine) (from UniProt Q13617 1-8)” was run?
A: 3100 µM

Q: “peptide H (8-mer Cul2 peptide, Leu3 replaced by phenylglycine) (from UniProt Q13617 1-8)” was tested. Which Kd did it give?
A: 2100 µM

Q: For “peptide F (8-mer Cul2 peptide, Leu3 replaced by norvaline) (from UniProt Q13617 1-8)”, which Kd is on record?
A: 1900 µM

Q: For “peptide K (8-mer Cul2 peptide, Leu3 replaced by thioproline) (from UniProt Q13617 1-8)”, which Kd is on record?
A: 2200 µM

Q: For “peptide G (8-mer Cul2 peptide, Leu3 replaced by tert-butylglycine) (from UniProt Q13617 1-8)”, which Kd is on record?
A: 900 µM

Q: How did the Kd turn out when “peptide I (8-mer Cul2 peptide, Leu3 replaced by cyclohexhylglycine) (from UniProt Q13617 1-8)” was run?
A: 8900 µM
